# Assay results as given in the supplement of paper PMC10567573.
# B1: C9orf9 (parent)
# chain: TKHKCRQLTKASLKPRGCSKPPWR
# Variants of: B1
# Assay: protein stability index of a GFP-peptide fusion (GPS, HEK-293T) (PSI 1-6); higher = more stable
# Details: c terminus: a fixed tail appended
# 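Further: lentivirally expressed fusions sorted by FACS into six bins by GFP to DsRed ratio, PSI derived from sequencing read proportions per bin multiplied by bin number.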
row,Variant,protein stability index
1,K2Y,2.1
2,K2P,4.64
3,K2S,4.18
4,K2M,2.16
5,K2W,2.57
6,K2A,1.36
7,A11G,3.46
8,A11C,2.23
9,A11Y,2.48
10,A11L,2.59
11,A11T,2.92
12,A11E,2.27
13,A11K,2.85
14,A11H,3.04
15,A11F,1.67
16,A11W,2.27
17,T1F,3.6
18,T1L,2.44
19,T1C,2.45
20,T1G,3.17
21,W23P,4.18
22,W23M,3.05
23,W23S,2.84
24,W23A,3.89

row,Variant,protein stability index
1,W23R,3.96
2,W23G,2.73
3,W23C,2.89
4,W23K,4.63
5,L13A,3.23
6,L13C,3.26
7,L13Q,3.57
8,L13G,4.47
9,L13T,3.32
10,L13W,3.03
11,L13S,3.5
12,P22T,3.03
13,P22Y,2.62
14,P22W,1.89
15,P22F,1.73
16,P22S,3.14
17,P22E,2.98
18,P22G,3.09
19,G17E,3.49
20,G17D,2.79
21,G17T,2.78
22,G17W,1.92
23,G17M,2.09
24,G17R,3.03

row,Variant,protein stability index
1,G17Y,2.52
2,G17I,2.86
3,H3K,3.09
4,H3S,3.02
5,H3T,2.83
6,P21W,2.28
7,P21I,3.18
8,P21Y,2.13
9,P21Q,3.48
10,P21G,2.81
11,P21T,2.56
12,P21F,2.79
13,P21L,3.59
14,C5V,2.88
15,C5Q,3.33
16,C5R,3.76
17,C5F,2.4
18,C5L,2.2
19,C5E,3.12
20,C5N,2.15
21,R16S,2.89
22,R16I,2.56
23,R16E,2.33
24,R16N,3.08

row,Variant,protein stability index
1,R16W,1.69
2,R16G,2.42
3,R16V,3.76
4,K10Q,2.77
5,K10M,2.38
6,K10I,2.73
7,K10S,3.07
8,K10W,2.46
9,K10N,2.8
10,K10F,2.58
11,K10T,3.42
12,K10E,1.74
13,T9H,2.47
14,T9Y,3.38
15,T9W,2.25
16,T9P,3.18
17,T9A,2.2
18,S12D,2.82
19,S12P,3.28
20,S12I,2.87
21,S12E,2.57
22,S12F,2.28
23,S12C,2.41
24,S12M,1.54

row,Variant,protein stability index
1,S12H,2.35
2,L8D,3.07
3,L8K,3.02
4,L8P,4.04
5,L8M,2.62
6,L8G,2.58
7,L8Y,2.35
8,R24V,2.14
9,R24S,2.18
10,R24A,2.95
11,R24Y,2.59
12,R24F,2.14
13,R24M,2.57
14,R24P,2.53
15,C18P,3.32
16,C18L,3.6
17,C18A,2.71
18,C18N,3.22
19,C18H,3.02
20,C18E,3.01
21,C18K,3.42
22,C18V,2.1
23,R6M,2.19
24,R6P,1.91

row,Variant,protein stability index
1,R6L,2.56
2,R6I,1.86
3,R6C,2.6
4,R6V,2.84
5,P15E,2.59
6,P15N,2.86
7,P15R,3.93
8,P15F,2.77
9,K14W,2.56
10,K14E,3
11,K14M,1.73
12,K14A,2.24
13,K14V,2.79
14,K14F,2.78
15,K14C,2.63
16,K20A,2.41
17,K20I,2.37
18,K20F,2.32
19,K20P,3.42
20,K20H,2.76
21,K20M,1.76
22,K20T,2.21
23,K4N,2.78
24,K4I,1.99

row,Variant,protein stability index
1,K4P,2.21
2,K4H,2.66
3,K4L,1.72
4,K4G,2.83
5,K4R,2.45
6,K4T,2.67
7,K4M,2.15
8,S19N,2.44
9,S19T,3.02
10,S19G,2.21
11,S19E,2.02
12,S19A,1.5
13,S19Y,1.99
14,S19V,3.35
15,Q7I,2.08
16,Q7Y,2.72
17,Q7K,3.27
18,Q7D,4.68
19,Q7R,2.56
20,Q7N,3.14
21,Q7A,2.96
22,Q7E,2.73
23,Q7H,2.5
